Test results published in US20050100919, “Nucleic acid-based detection” (Brandeis University, a Massachusetts corporation, published 2005).

Assays:
thrombin [1] = molecular target: T1, thrombin (UniProt P00734;P00734 P00734:328-363,P00734:364-622); assay: competition; filter binding competition against radiolabeled G15D5d, TBB; displacement curve only in figure
thrombin [2] = molecular target: T1, thrombin; assay: fluorescence change at 100 nM thrombin in TBB; not saturated at 250 nM
factor IX = factor IX (UniProt P00740 P00740:47-461); assay: specificity control; no effect on beacon fluorescence in TE; conditions: tags: purchased from Enzyme Research Lab; label: 5'-fluorescein, 3'-DABCYL; alternate 5-bp stem-loop / G4
Sequence of factor IX (P00740 47-461, one chain of several): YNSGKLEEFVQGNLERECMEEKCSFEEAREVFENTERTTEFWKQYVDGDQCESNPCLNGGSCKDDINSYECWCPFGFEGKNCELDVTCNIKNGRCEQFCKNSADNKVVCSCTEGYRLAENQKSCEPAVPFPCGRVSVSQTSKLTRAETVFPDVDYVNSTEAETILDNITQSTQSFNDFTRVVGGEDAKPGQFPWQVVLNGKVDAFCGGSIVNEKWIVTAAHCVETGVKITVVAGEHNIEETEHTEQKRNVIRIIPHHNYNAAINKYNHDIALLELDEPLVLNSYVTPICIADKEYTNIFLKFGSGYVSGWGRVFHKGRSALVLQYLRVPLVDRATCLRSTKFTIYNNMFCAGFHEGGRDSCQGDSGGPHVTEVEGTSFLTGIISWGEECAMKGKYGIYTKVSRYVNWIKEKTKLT
Experimental: Thrombin binding assay using a fluorescence spectrometer: The aptamers were diluted to a concentration of 10 uM in TBB or TE (20 mM Tris-HCl, 1 mM EDTA, pH7.5) and heated at 99° for three min and cooled down to room temperature prior to the experiment. The experiment was performed using 5-40 nM of aptamer in 2 ml. All of the fluorescence intensity measurements were performed at 24° C. The excitation wavelength was 495 nm and the emission was monitored at its peak, 516 nm (in TE) or 518 nm (in TBB). A small volume (0.5-3 μl) of thrombin (final concentration of 0-250 nM) was added and the change of emission was monitored.
To confirm the binding specificity of G15D5dMB, we used factor IX, which is a plasma serine protease, as is thrombin, and shares a sequence identity of 37% in the catalytic domain with thrombin.

thrombin [3] = molecular target: T1, thrombin; assay: fluorescence beacon titration, TE buffer (20 mM Tris-HCl, 1 mM EDTA, pH 7.5), 24 C; estimated
thrombin [4] = molecular target: T1, thrombin; assay: competition; affinity increase relative to G15D5d, filter binding competition in TE
thrombin [5] = molecular target: T1, thrombin; assay: fluorescence change at 100 nM thrombin in TE
thrombin [6] = molecular target: T1, thrombin; assay: fluorescence ratio at 100 nM thrombin in TBB; 0.7 in TE
thrombin [7] = molecular target: T1, thrombin; assay: half-maximum effect, fluorescence decrease, TBB (20 mM Tris-HCl, 140 mM NaCl, 5 mM KCl, 1 mM MgCl2, 1 mM CaCl2, pH 7.5)
thrombin [8] = molecular target: T1, thrombin; assay: fluorescence beacon titration, TE buffer, 24 C; estimated

Binder: GGTTGGTGTGGTTGG (ssDNA) [G15D]
- binding result (thrombin [1]): binds

Binder: CCAAGGTTGGTGTGGTTGG (ssDNA) [G15D4dMB]
- activity (thrombin [2]): 1.5 fold

Binder: CCAACGGTTGGTGTGGTTGG (ssDNA) [G15D5dMB]
- binding result (factor IX): no binding
- Kd (thrombin [3]): 3 nM
- binding signal (thrombin [4]): ~6 fold
- activity (thrombin [5]): 2.3 fold

Binder: TTTTTGGTTGGTGTGGTTGG (ssDNA) [G15D5ndMB]
- activity (thrombin [6]): 0.5 fold
- EC50 (thrombin [7]): ~80 nM

Binder: CCAACCGGTTGGTGTGGTTGG (ssDNA) [G15D6dMB]
- activity (thrombin [5]): 1.7 fold
- Kd (thrombin [8]): 12 nM
